{"source": "the DeepSol protein solubility set", "data": [{"assay": "soluble on expression in E. coli; label from the status in PepcDB or PDB records", "values": [{"sequence": "MNNETSGSRDMILKHFDSTQNNQNSVKLEHESSDNNESSGSQNFVFNFLMSQLQNMGPVEIKQEVEAKMLDDIEDEYTDNNYNEGYSKMDTDGDLEWEEEFKKLNKDPSKMDKREQERHRQMAKNREYARKCVQKKKDQRKHAEIRSNQIKKRIQLLKNKTAIKEKNANFAVDLRKMMSEIGVERLKLEYENEKMELNKKFAEMFAQDETVNLNFHRLASAREEFEKAAEDLRLKNGVIGTLGSRKIRAKQQMEWRQHLYQISAHEHEHHRETKLAELADEYVKQTVPKAAPLVTSIPKDMLDQLIKNNKTLDLEELCRFVADNLCLLQNDNDDKESVVK", "soluble on expression in E. coli": "not soluble"}, {"sequence": "MAGGGNFIARVISYVANEFIVNGLANSHAFQRFAVRTSKRIENLSKMAAENREKVAQQMEEFAKNIDVIHEETLIILVWNLKTSVNHMGQLK", "soluble on expression in E. coli": "not soluble"}, {"sequence": "KRFTADVEQQAEKILSQMTLDEKLSYIGGINWMYTRPLERFGIPRLKMSDGPQGLGTHGPSTAYPCALMLAATWNEQLATEYGSALGKDCRARGVHVLLGPAVNIYRAPMCGRNFEYMGEDPYLTSRMATGYIKGVQGQGVMATIKHFIANNSDYDRDHISSDIDERTLNEIYFPSFRAAVQEAEVGAVMSSYNLLNGIYTTEHPWLLKDVLRQQWGFKGILMSDWGSTHHCIPAVKGGLDLEMPAGSKMQPEELKYYLRTGDITIETIDEKVRHILQTLLAFGFRETQQPDTHIPLKNPQCAQTA", "soluble on expression in E. coli": "not soluble"}, {"sequence": "MWQCHLSAQDYRYYPVDGYSLLKRFPLHPLTGPRCPVQTVGQWLESIGLPQYENHLMANGFDNVQFMGSNVMEDQDLLEIGILNSGHRQRILQAIQLLPKMRPIGHDGYHPTSVAEWLDSIELGDYTKAFLINGYTSMDLLKKIWEVELINVLKINLIGHRKRILASLGDRLHDDPPQKPPRSITLRTGDWGEPSITLRPPNEATASTPVQYWQHHPEKLIFQSCDYKAFYLGSMLIKELRGTESTQDACAKMRANCQKSTEQMKKVPTIILSVSYKGVKFIDATNKNIIAEHEIRNISCAAQDPEDLSTFAYITKDLKSNHHYCHVFTAFDVNLAYEIILTLGQAFEVAYQLALQARKGGHSSTLPESFENKPSKPIPKPRVSIRKSVDLLHASHTGQEPSERHTEEALRKF", "soluble on expression in E. coli": "soluble"}, {"sequence": "MGKKQHQKDKLYLTTSEWKSIGGHKDDTGTRLQRAQFKRLPINHCSLSLLPFEDPVCARSGEIFDLTAIVPYLKKHGKNPCTGKPLVAKDLIHLKFDKGEDGKFRCPVTFRTFTDHSHILAIATSGNVYSHEAVQELNLKRNHLKDLLTDVPFTRADIIDLQDPNHLEKFNMEQFLHVKLDLKTSEEIKKEKDAMKDPKFYIRRMNNACKSVLDQLDKEYVPKKSSTETDETADEINAAHYSQGKVAAGFTSTVMAPVTSNKAAVLDNDTVRYSRVKKNAFVRLVTNFGPLNLELFAPKVPKACENFITHCSNGYYNNTKFHRLIKNFMLQGGDPTGTGHGGESIWDKPFSDEFISGFSHDARGVLSMANKGSNTNGSQFFITFRPCKYLDRKHTIFGRLVGGQDTLTTIEKLETEEGTDVPMVSVVIMRAEVFVDPFEEAEKEVQAERAEILKKTSKDAASLANKKAKETATKPEAVGTGVGKYMKSAAAVNKRQGKMEDVPLEAAKKTKFARAGLGDFSKW", "soluble on expression in E. coli": "not soluble"}, {"sequence": "MSSFQLQQLPSLPIKEVFKSLGVCDLLNLCRSSNKSRRLVKKSLKDITFTLKIVAEEKHYKIWLKEDFSKHKARIRAENSNGTSLFKNIRWLMHTFWVETVYLDCTNVEEGDVVKVVEYLKKEKPYYLKLYFECPMISDSLWQLMLNCEADVLIISVDREVKVTFDNVPLLFNCECIILHGVKFSEKGMNLLFKTWQSSKERTLQCVSLTRKLGPFWKKQANEKVVLKGIDVESVEKKRIFKVKKDGIKKSTTYNLVKNDGELATLKFDKQEICFHTENDR", "soluble on expression in E. coli": "not soluble"}, {"sequence": "MTTALHITLITETFPPEINGVANTLGRLCEGLRARGHQVELVRPRQGCDQSRASDEALLLCRGWPLPGYPGLQWGQSSMHKLLRRWKRQRPDVLYIATEGPLGLSALRAAKRLGISVVSGFHTNFQQYSSQYGLGLLTRLLTHYLRWFHNRSQLTLVPSASQHLELERRHFERLALLSRGVDSQLFHPAKRLDTLRADWGLGTDDLAVIHVGRLAQEKNLGLLKRCFERLQATYPQRRMKLIVVGDGPQRGALEKSLPEALFCGSQRGEALAAHYACGDLFLFPSLTETFGNVVLEALASGLAVVAYDQAGAAQHIRHGYNGVLAMPGDESAFCDAASWLLEEPETLRRVRLNARQHASRQGWAAVIEQFEDRLRSACEHGPAEDYEGLIEATVKPRSAVETLGTARGLPPSPPGAGSLEHHHHHH", "soluble on expression in E. coli": "soluble"}, {"sequence": "MGSDKIHHHHHHMRVNMYLSRQIQPLVSRLLKQFPAVLVTGARQVGKSTLLKHIAKDYAYLTFDDPLLLEQAKQEPRLFFLNHAGNVILDEVQYAQELFSLLKLEIDKQQKNGMFLLSGSQAFELMQNVSETLAGRIAILKLQGLSLREILNVEFYLPFIPSRDYLASREKMLKSPENIWQIIHKGDMPRLYQQETDWEIYYSSYVSTYIERDVRQLTNITNTTDFTRFMVALASRSGELLNYSNVAQEVGVSNETIKRWTAILQTSGIIYLLQPYSNNHLKRTIKTPKIYFLNTGLMAYLTKWLTPETISKGAKSGQFFESFVVSEIIKSFTNNGIEPPLYFYRNTNQKEIDLIIEYDRTIYPIEIKTTANPNKKMAKSFALLNSLGKESTIGLGVIINQYPNKHYLAENLVALPVRYL", "soluble on expression in E. coli": "not soluble"}, {"sequence": "MGSDKIHHHHHHMIDIKNTLLLGHRGARGEALENTLSGFEYAQNLQLSGLAGVEFDVQLSRDGQLVVFHDDTLERMCAQQSRLDQLNVSEIQRHRQFGQPIITLLDIASALNTYTYIELEVKTHSRTDYAKLVKALMHDLIDSSLASLPIVLTSFDVALHARLQRSTLLRHIPRGLLIREPELLKQAPNTALQLGCGQLGIHYPLLNHKVIQCCHQYDLPVSAWTVNDIETIKQLIDWQVDVIITDYPSYLLLP", "soluble on expression in E. coli": "not soluble"}, {"sequence": "MDVDLASVEVVFAQKLACGEPATRQRALRVLHDWIRDQSAKKHFDDADLMRLCKGLHYVMWMQDKMILQEELADRIGGLINIFTSEEEKVRFVACFLKSLSKEWPHIDRWRMDKFLMEVRRMVRACFTHLAELKWKKDIRDEYWKVFQETTISTDKSFNEALKFHFASILLDELDAAGGLTKKQVTACLKPYIELLGNKDISEYLFTSLYEEIFKTILQQKSDLITAVEEGEEMDQGGIEFSYKEIGALLFEVGKQEHLNAKRRKKIYDLVKKFDKSSRGQDPLHFETPVPKERLTRHDYEEAEKKAIVLANSFKQERKSSRKVKSQIKKRAREAAEAARQENGDDVPDDEIAEVKKGNGKKTAVPKVKKGRPLLKAKGVGKKRMVGGLKRKAGKKN", "soluble on expression in E. coli": "not soluble"}, {"sequence": "SNAMKRSIEDTPIVLIGAGNLATNLAKALYRKGFRIVQVYSRTEESARELAQKVEAEYTTDLAEVNPYAKLYIVSLKDSAFAELLQGIVEGKREEALMVHTAGSIPMNVWEGHVPHYGVFYPMQTFSKQREVDFKEIPFFIEASSTEDAAFLKAIASTLSNRVYDADSEQRKSLHLAAVFTCNFTNHMYALAAELLKKYNLPFDVMLPLIDETARKVHELEPKTAQTGPAIRYDENVIGNHLRMLADDPAMQRLYELLSRSIHERQ", "soluble on expression in E. coli": "soluble"}, {"sequence": "PTSAPQHLTVEDVTDTTTTLKWRPPDRIGAGGIDGYLVEYCLEGSEEWVPANKEPVERCGFTVKDLPTGARILFRVVGVNIAGRSEPATLLQPVTIRE", "soluble on expression in E. coli": "soluble"}, {"sequence": "MKKIYKVLYPVGFQIFEVQDDYVVALPFVEEKPLENLVNEQSQFFNFSEQKWEEAVTQDYTKKLNLLENLANGLEVSNSELKQANEKLTAKAESLAQINSKTMLTSLQNTREIDAIKEQIGGAK", "soluble on expression in E. coli": "not soluble"}, {"sequence": "MGSDKIHHHHHHMLKMPSLKAVKSFVAAAKYQSFTRAAEALCVTQAAISRQIRELEAYMGVELFKRVGRAVELTEAGSAFFDAAQLSFVNISQAAKRVGAYKAGKSEVTLCCSAAFAALWLSPKLPGFFNDNQDIDLNLISTQNFLSMEPGVTPDIFITKFSSVHSGYRSYPLFHDVIFPVCTPRYRDEHPELATLEGLRDSALLNLSPYGRAQVAEHIDWGVWLAFHDTDIEKRTHNRPHVFSANDYNVVINMTLANQGVALGWSHLVAESLEKGALVRPIQKEVVHKDSQHYLAFKVDRESDRGCCRLRDWLLSHFA", "soluble on expression in E. coli": "not soluble"}, {"sequence": "MNFDVAIIGGGLAGLTCAIALQQRGKRCVIINNGQAAIDFASGSLDLLSRMPSTTYGENRAVENLKENITALRNELPAHPYSLLGAEKVLAKAQDFERLANELHLDLIGSTEKNHWRVTGLGSLRGAWLSPNSVPTVQGNEPFPHKRIAVLGIEGYHDFQPQLLAANLVLNPQFEHCEVTSGFLNIPQLDELRKNAREFRSVNISQLLEHKLAFKDLVKEIIESAQGAEAVFLPACFGLENQEFMTALRDATKLALFELPTLPPSLLGMRQRIQLRHKFESLGGLMINGDSALNATFEGNQVRCINTRLLEDEEITADNFVLASGSFFSKGLISEFDKIYEPVFESDIIGVEGFNNKDRFTWTAHRFAHPQPYQSAGVAINAQCQVKKCGQFLTNLYAVGNVIGGFNALELGCGSGVAVVTALAVADEILAKLEHHHHHH", "soluble on expression in E. coli": "soluble"}, {"sequence": "MFLLKQIGVIRSPFKSPSECPFQGRFSQERFTIELFPEYEEGLKDIETCTHLIVLYWLDRANRDRLIAIPPFDKREHGVFATRSPHRPNPIGFSVVKLLEVRGRELVVEGLDAVDGTPVVDIKPYSSKIDCVENARIGWFEEV", "soluble on expression in E. coli": "soluble"}, {"sequence": "MGSDKIHHHHHHMSTDNDTETDDSGGHCSTPDSDGEVAEDIAIVAFERKRDTAAEIVAGIGDRYDSIDILDYHGDVFAEHWGEYDCFVGLMASGIAMRKTAGLLDDKWEDPAVVVVDEALTWAIPLTGGHHGANQVADDLASMGAVPAMTTASEAAGKQGVEERAKALDTHVVNGDSTVATNLAVLDENLGPVARLDGPQAVVVGDDVTVLKRNSDDGVVLGTGSVSGADEQQFRDAWAASLAATDYDIDDVEFVATGTRKADEEGLLAAAEALGLGVVAFEKETLEAHEGPTPSRSKELIGWPGIAEASAIAGGRDNELLAEKERYDEAVTVAVGK", "soluble on expression in E. coli": "not soluble"}, {"sequence": "MAASKKAVLGPLVGAVDQGTSSTRFLVFNSKTAELLSHHQVEIKQEFPREGWVEQDPKEILHSVYECIEKTCEKLGQLKIDISNIKAIGVSNQRETTVVWDKITGEPLYNAVVWLDLRTQSTVESLSKRITGNNNFVKSKTGLPLSTYFSAVKLRWLLDNVRKVQKAVEEKRALFGTIDSWLIWSLTGGVNGGVHCTDVTNASRTMLFNIHSLEWDKQLCEFFGIPMEILPNVRSSSEIYGLMKISHSVKAGALEGVPISGCLGDQSAALVGQMCFQIGQAKNTYGTGCFLLCNTGHKCVFSDHGLLTTVAYKLGRDKPVYYALEGSVAIAGAVIRWLRDNLGIIKTSEEIEKLAKEVGTSYGCYFVPAFSGLYAPYWEPSARGIICGLTQFTNKCHIAFAALEAVCFQTREILDAMNRDCGIPLSHLQVDGGMTSNKILMQLQADILYIPVVKPSMPETTALGAAMAAGAAEGVGVWSLEPEDLSAVTMERFEPQINAEESEIRYSTWKKAVMKSMGWVTTQSPESGIP", "soluble on expression in E. coli": "not soluble"}, {"sequence": "MGSDKIHHHHHHMEIAVLGGGNGSTAAAVDLTAQGHNIRFWRRNASAQAELKARGNVITLKDFEGARPIRITMVTDDIGEAIRGAELIVCPTPATAQSDIAAAMAPHLADGQVVFLPPGSFGSWIMADIVRKAGNHADVSWAETGTLPYLTRLHGADTVAITTRATRLPTGVYPLRNAEHAHSVLARAYPAVEPAGDALSGALMNAGPIIHPPLITMNAGPIEHFDHWDIHNEGTQPAIRRVTTRLDAERMAVREALGYGAPHFPLADHYETSDWMYGNLAHDKLVDSGDWREHLVLTEHRYMREDVAVGLALLVSVADWAGVPAPTATGLLALGSAICDDDFRQSGRTLENLGLADMDRAALQTMLRDGA", "soluble on expression in E. coli": "not soluble"}]}]}
